What was measured:
HLA-A*02:01 = HLA-A*02:01 (Homo sapiens, UniProt P04439, D140Y/D185E/D98H/E176V/E277Q/G131W/G231S/I119V/I121R/I166T/I218V/L300P/L318F/N151K/N90K/P208A/P217A/Q86G/Q94H/R138H/R169H/T345S); assay: MHC binding assay (UV-ligand exchange, beta2m ELISA, peptide exchange yield); conditions: binding to HLA-A*02:01
Outline: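 Peptide–HLA-A*02:01 complexes formed by UV-ligand exchange, in which a UV-cleavable peptide is replaced by the test peptide. Exchange products, diluted 100-fold, were captured on streptavidin plates and detected with HRP anti-β2m ELISA at 450 nm. Yield was quantified against refolded monomer standards at 15-500 ng/ml.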

CD8+ T-cells = assay: In vitro T-cell priming assay with aAPCs loaded with peptide/MHC and anti-CD28, pMHC multimer readout; format: cell-based, human; conditions: HLA-A*02 restricted peptides; positive wells among evaluable
Description: In order to obtain information regarding the immunogenicity of the TUMAPs of the present invention, the inventors performed investigations using an in vitro T-cell priming assay based on repeated stimulations of CD8+ T-cells with artificial antigen presenting cells (aAPCs) loaded with peptide/MHC complexes and anti-CD28 antibody.
In order to perform in vitro stimulations by artificial antigen presenting cells loaded with peptide-MHC complex (pMHC) and anti-CD28 antibody, the inventors first isolated CD8+ T-cells from fresh HLA-A*02 leukapheresis products via positive selection using CD8 microbeads (Miltenyi Biotec, Bergisch-Gladbach, Germany) of healthy donors obtained from the University clinics Mannheim, Germany, after informed consent.
PBMCs and isolated CD8+ lymphocytes were incubated in T-cell medium (TCM) until use consisting of RPMI-Glutamax (Invitrogen, Karlsruhe, Germany) supplemented with 10% heat inactivated human AB serum (PAN-Biotech, Aidenbach, Germany), 100 U/ml Penicillin/100 μg/ml Streptomycin (Cambrex, Cologne, Germany), 1 mM sodium pyruvate (CC Pro, Oberdorla, Germany), 20 μg/ml Gentamycin (Cambrex). 2.5 ng/ml IL-7 (PromoCell, Heidelberg, Germany) and 10 U/ml IL-2 (Novartis Pharma, Nürnberg, Germany) were also added to the TCM at this step.
Generation of pMHC/anti-CD28 coated beads, T-cell stimulations and readout was performed in a highly defined in vitro system using four different pMHC molecules per stimulation condition and 8 different pMHC molecules per readout condition.
The purified co-stimulatory mouse IgG2a anti human CD28 Ab 9.3 (Jung et al., 1987) was chemically biotinylated using Sulfo-N-hydroxysuccinimidobiotin as recommended by the manufacturer (Perbio, Bonn, Germany). Beads used were 5.6 μm diameter streptavidin coated polystyrene particles (Bangs Laboratories, Illinois, USA).
800.000 beads/200 μl were coated in 96-well plates in the presence of 4×12.5 ng different biotin-pMHC, washed and 600 ng biotin anti-CD28 were added subsequently in a volume of 200 μl. Stimulations were initiated in 96-well plates by co-incubating 1×10^6 CD8+ T-cells with 2×10^5 washed coated beads in 200 μl TCM supplemented with 5 ng/ml IL-12 (PromoCell) for 3 days at 37° C. Half of the medium was then exchanged by fresh TCM supplemented with 80 U/ml IL-2 and incubating was continued for 4 days at 37° C. This stimulation cycle was performed for a total of three times. For the pMHC multimer readout using 8 different pMHC molecules per condition, a two-dimensional combinatorial coding approach was used as previously described (Andersen et al., 2012) with minor modifications encompassing coupling to 5 different fluorochromes. Finally, multimeric analyses were performed by staining the cells with Live/dead near IR dye (Invitrogen, Karlsruhe, Germany), CD8-FITC antibody clone SK1 (BD, Heidelberg, Germany) and fluorescent pMHC multimers. For analysis, a BD LSRII SORP cytometer equipped with appropriate lasers and filters was used. Peptide specific cells were calculated as percentage of total CD8+ cells. Evaluation of multimeric analysis was done using the FlowJo software (Tree Star, Oreg., USA). In vitro priming of specific multimer+ CD8+ lymphocytes was detected by comparing to negative control stimulations.

Substance	Peptide exchange (MHC class I binding score, peptide exchange yield) (HLA-A*02:01)	Wells positive [%] (CD8+ T-cells)
21 (VLIDHRWVL; listed as Homo sapiens) [compound 21]	“+++” (≥50 = +++)	“+” (<20% = +)
17 (ALAAARVEL; listed as Homo sapiens) [compound 17]	“+++” (≥50 = +++)	“++” (20%-49% = ++)
9 (ILDDHLSRV; listed as Homo sapiens) [compound 9]	“++” (≥20% = ++)	“+” (<20% = +)
2 (ALLPRYFFL; listed as Homo sapiens) [compound 2]	“++” (≥20% = ++)	“++++” (> = 70% = ++++)
13 (FLLAEDTKV; listed as Homo sapiens) [compound 13]	“+++” (≥50 = +++)	“++” (20%-49% = ++)
18 (FLSSLKGGLL; listed as Homo sapiens) [compound 18]	“+++” (≥50 = +++)	“+” (<20% = +)
7 (YLTRHLAVL; listed as Homo sapiens) [compound 7]	“++” (≥20% = ++)	“+” (<20% = +)
47 (KLYERCEVV; listed as Homo sapiens) [compound 47]	“++” (≥20% = ++)	“+” (<20% = +)
22 (GLIDEVMVL; listed as Homo sapiens) [compound 22]	“+++” (≥50 = +++)	“++” (20%-49% = ++)
12 (ALVQGILERV; listed as Homo sapiens) [compound 12]	“+++” (≥50 = +++)	“++++” (> = 70% = ++++)
31 (LLYGKYVSV; listed as Homo sapiens) [compound 31]	“+++” (≥50 = +++)	“++” (20%-49% = ++)

The next lines start with results.

Peptide exchange (MHC class I binding score, peptide exchange yield) (HLA-A*02:01)	Substance	Wells positive [%] (CD8+ T-cells)
“++” (≥20% = ++)	64 (KTLGKLWRL; listed as Homo sapiens) [compound 64]	“++++” (> = 70% = ++++)
“+++” (≥50 = +++)	124 (RVLPPSALQSV; listed as Homo sapiens) [compound 124]	“+” (<20% = +)
“+++” (≥50 = +++)	132 (ALLNAILHSA; listed as Homo sapiens) [compound 132]	“+” (<20% = +)
“+++” (≥50 = +++)	127 (RLAELTVDEFLA; listed as Homo sapiens) [compound 127]	“+” (<20% = +)
“++” (≥20% = ++)	123 (KTLERSYLL; listed as Homo sapiens) [compound 123]	“+” (<20% = +)
“+++” (≥50 = +++)	136 (KLFDIFSQQV; listed as Homo sapiens) [compound 136]	“++” (20%-49% = ++)
“++” (≥20% = ++)	133 (RTFEKIEEV; listed as Homo sapiens) [compound 133]	“+” (<20% = +)
“+++” (≥50 = +++)	142 (SLVQRVETI; listed as Homo sapiens) [compound 142]	“+” (<20% = +)
“+++” (≥50 = +++)	59 (LLTDNVVKL; listed as Homo sapiens) [compound 59]	“+” (<20% = +)
“++++” (≥75% = ++++)	141 (AVIEHLERL; listed as Homo sapiens) [compound 141]	“+” (<20% = +)
“+++” (≥50 = +++)	150 (RLADLEALKV; listed as Homo sapiens) [compound 150]	“++″ (20%-49% = ++)
